Assay results as given in article PMC12557600.

How the values were obtained:
Experiment in all cases: EMSA
Details in all cases: N16 of strand 1 = tetrahydrofuran (THF) abasic site analog; EMSA: 50 mM Tris pH 8.0, 1 mM EDTA, 0.2 mg/ml BSA, 50 mg/ml sucrose, 0.5 mg/ml bromophenol blue, 1 mM DTT; 2 nM DNA, at least 20 min; 10% 59:1 native gel …
[1] = molecular target: APE1 N174A N174A (Homo sapiens) (UniProt P27695)
[2] = molecular target: APE1 N174D N174D (Homo sapiens) (UniProt P27695)
[3] = molecular target: APE1 N174K N174K (Homo sapiens) (UniProt P27695)
APE1 N174K N174K (Homo sapiens), sequence (P27695 whole entry N174K): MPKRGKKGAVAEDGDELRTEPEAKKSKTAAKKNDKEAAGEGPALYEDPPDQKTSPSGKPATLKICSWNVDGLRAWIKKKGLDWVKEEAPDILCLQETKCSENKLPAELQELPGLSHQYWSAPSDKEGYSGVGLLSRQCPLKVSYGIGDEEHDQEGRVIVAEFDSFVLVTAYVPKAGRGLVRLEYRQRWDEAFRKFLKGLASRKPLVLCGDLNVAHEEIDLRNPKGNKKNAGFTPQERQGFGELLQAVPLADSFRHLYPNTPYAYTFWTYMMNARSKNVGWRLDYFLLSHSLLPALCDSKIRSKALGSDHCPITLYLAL

APE1 WT (Homo sapiens) = APE1 WT (Homo sapiens) (UniProt P27695)
APE1 WT (Homo sapiens), sequence (P27695 whole entry): as the sequence (P27695 whole entry N174K) above, with K174N counted along it

APE1 N174D N174D (Homo sapiens), sequence (P27695 whole entry N174D): as the sequence (P27695 whole entry N174K) above, with K174D counted along it
APE1 N174A N174A (Homo sapiens), sequence (P27695 whole entry N174A): as the sequence (P27695 whole entry N174K) above, with K174A counted along it

Question: Which results are given for “CGTTCGCTGATGCGCNCGACGGATCCGCAT / ATGCGGATCCGTCGAGCGCATCAGCGAACG [30-bp THF AP-DNA]”?
Answer: Kd [1]: 44 nM; Kd [2]: 13 nM; Kd [3]: 17 nM; Kd (APE1 WT (Homo sapiens)): 0.9 nM
